{
  "source": "patent US9993529B2",
  "about": "“Stable formulations of a hyaluronan-degrading enzyme” (Halozyme, Inc., priority 2011, dated 2018)",
  "assay": "RP-HPLC insulin apparent solubility / percent recovery (content)",
  "settings": "7 days at 2-8° C.",
  "procedure,_shortened": "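Vial samples withdrawn at each time point, centrifuged, held at 4 °C, run in duplicate by RP-HPLC. Apparent solubility = combined insulin main and desamido peak areas as percent versus standards/initial formulation; purity = main insulin peak as percent of all insulin species.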",
  "data": [
    {"substance": "Aspart: AspB28 human insulin analog", "values": [
      {"measurement": "Solubility of Insulin Aspart", "setting": "0.2% methylparaben + […] m-cresol, pH 6.6, NaCl 50 mM", "value": 57.7, "unit": "%"},
      {"measurement": "Solubility of Insulin Aspart", "setting": "0.2% methylparaben + […] m-cresol, pH 6.6, NaCl 80 mM", "value": 32.1, "unit": "%"},
      {"measurement": "Solubility of Insulin Aspart", "setting": "0.2% methylparaben + […] m-cresol, pH 6.6, NaCl 110 mM", "value": 21.1, "unit": "%"},
      {"measurement": "Solubility of Insulin Aspart", "setting": "0.2% methylparaben + […] m-cresol, pH 6.6, NaCl 140 mM", "value": 14.7, "unit": "%"},
      {"measurement": "Solubility of Insulin Aspart", "setting": "0.2% methylparaben + […] m-cresol, pH 6.8, NaCl 50 mM", "value": 97.2, "unit": "%"},
      {"measurement": "Solubility of Insulin Aspart", "setting": "0.2% methylparaben + […] m-cresol, pH 6.8, NaCl 80 mM", "value": 84.1, "unit": "%"},
      {"measurement": "Solubility of Insulin Aspart", "setting": "0.2% methylparaben + […] m-cresol, pH 6.8, NaCl 110 mM", "value": 54.2, "unit": "%"},
      {"measurement": "Solubility of Insulin Aspart", "setting": "0.2% methylparaben + […] m-cresol, pH 6.8, NaCl 140 mM", "value": 32.2, "unit": "%"},
      {"measurement": "Solubility of Insulin Aspart", "setting": "0.2% methylparaben + […] m-cresol, pH 7.0, NaCl 50 mM", "value": 98.7, "unit": "%"},
      {"measurement": "Solubility of Insulin Aspart", "setting": "0.2% methylparaben + […] m-cresol, pH 7.0, NaCl 80 mM", "value": 100.2, "unit": "%"},
      {"measurement": "Solubility of Insulin Aspart", "setting": "0.2% methylparaben + […] m-cresol, pH 7.0, NaCl 110 mM", "value": 96.3, "unit": "%"},
      {"measurement": "Solubility of Insulin Aspart", "setting": "0.2% methylparaben + […] m-cresol, pH 7.0, NaCl 140 mM", "value": 67.9, "unit": "%"},
      {"measurement": "Solubility of Insulin Aspart", "setting": "0.2% methylparaben + […] m-cresol, pH 7.2, NaCl 50 mM", "value": 99.0, "unit": "%"},
      {"measurement": "Solubility of Insulin Aspart", "setting": "0.2% methylparaben + […] m-cresol, pH 7.2, NaCl 80 mM", "value": 100.2, "unit": "%"},
      {"measurement": "Solubility of Insulin Aspart", "setting": "0.2% methylparaben + […] m-cresol, pH 7.2, NaCl 110 mM", "value": 99.5, "unit": "%"},
      {"measurement": "Solubility of Insulin Aspart", "setting": "0.2% methylparaben + […] m-cresol, pH 7.2, NaCl 140 mM", "value": 101.6, "unit": "%"},
      {"measurement": "Solubility of Insulin Aspart", "setting": "0.2% methylparaben + […] m-cresol, pH 7.4, NaCl 50 mM", "value": 99.1, "unit": "%"},
      {"measurement": "Solubility of Insulin Aspart", "setting": "0.2% methylparaben + […] m-cresol, pH 7.4, NaCl 80 mM", "value": 100.5, "unit": "%"},
      {"measurement": "Solubility of Insulin Aspart", "setting": "0.2% methylparaben + […] m-cresol, pH 7.4, NaCl 110 mM", "value": 99.6, "unit": "%"},
      {"measurement": "Solubility of Insulin Aspart", "setting": "0.2% methylparaben + […] m-cresol, pH 7.4, NaCl 140 mM", "value": 99.6, "unit": "%"},
      {"measurement": "Solubility of Insulin Aspart", "setting": "0.2% methylparaben + […] m-cresol, pH 7.6, NaCl 50 mM", "value": 99.3, "unit": "%"},
      {"measurement": "Solubility of Insulin Aspart", "setting": "0.2% methylparaben + […] m-cresol, pH 7.6, NaCl 80 mM", "value": 100.6, "unit": "%"},
      {"measurement": "Solubility of Insulin Aspart", "setting": "0.2% methylparaben + […] m-cresol, pH 7.6, NaCl 110 mM", "value": 99.8, "unit": "%"},
      {"measurement": "Solubility of Insulin Aspart", "setting": "0.2% methylparaben + […] m-cresol, pH 7.6, NaCl 140 mM", "value": 99.8, "unit": "%"},
      {"measurement": "Solubility of Insulin Aspart", "setting": "0.2% phenol + […] m-cresol, pH 6.6, NaCl 50 mM", "value": 91.8, "unit": "%"},
      {"measurement": "Solubility of Insulin Aspart", "setting": "0.2% phenol + […] m-cresol, pH 6.6, NaCl 80 mM", "value": 59.2, "unit": "%"},
      {"measurement": "Solubility of Insulin Aspart", "setting": "0.2% phenol + […] m-cresol, pH 6.6, NaCl 110 mM", "value": 58.0, "unit": "%"},
      {"measurement": "Solubility of Insulin Aspart", "setting": "0.2% phenol + […] m-cresol, pH 6.6, NaCl 140 mM", "value": 39.3, "unit": "%"},
      {"measurement": "Solubility of Insulin Aspart", "setting": "0.2% phenol + […] m-cresol, pH 6.8, NaCl 50 mM", "value": 98.8, "unit": "%"},
      {"measurement": "Solubility of Insulin Aspart", "setting": "0.2% phenol + […] m-cresol, pH 6.8, NaCl 80 mM", "value": 91.8, "unit": "%"},
      {"measurement": "Solubility of Insulin Aspart", "setting": "0.2% phenol + […] m-cresol, pH 6.8, NaCl 110 mM", "value": 72.8, "unit": "%"},
      {"measurement": "Solubility of Insulin Aspart", "setting": "0.2% phenol + […] m-cresol, pH 6.8, NaCl 140 mM", "value": 50.9, "unit": "%"},
      {"measurement": "Solubility of Insulin Aspart", "setting": "0.2% phenol + […] m-cresol, pH 7.0, NaCl 50 mM", "value": 99.1, "unit": "%"},
      {"measurement": "Solubility of Insulin Aspart", "setting": "0.2% phenol + […] m-cresol, pH 7.0, NaCl 80 mM", "value": 100.6, "unit": "%"},
      {"measurement": "Solubility of Insulin Aspart", "setting": "0.2% phenol + […] m-cresol, pH 7.0, NaCl 110 mM", "value": 99.9, "unit": "%"},
      {"measurement": "Solubility of Insulin Aspart", "setting": "0.2% phenol + […] m-cresol, pH 7.0, NaCl 140 mM", "value": 88.9, "unit": "%"},
      {"measurement": "Solubility of Insulin Aspart", "setting": "0.2% phenol + […] m-cresol, pH 7.2, NaCl 50 mM", "value": 99.1, "unit": "%"},
      {"measurement": "Solubility of Insulin Aspart", "setting": "0.2% phenol + […] m-cresol, pH 7.2, NaCl 80 mM", "value": 100.5, "unit": "%"},
      {"measurement": "Solubility of Insulin Aspart", "setting": "0.2% phenol + […] m-cresol, pH 7.2, NaCl 110 mM", "value": 100.0, "unit": "%"},
      {"measurement": "Solubility of Insulin Aspart", "setting": "0.2% phenol + […] m-cresol, pH 7.2, NaCl 140 mM", "value": 99.7, "unit": "%"},
      {"measurement": "Solubility of Insulin Aspart", "setting": "0.2% phenol + […] m-cresol, pH 7.4, NaCl 50 mM", "value": 99.2, "unit": "%"},
      {"measurement": "Solubility of Insulin Aspart", "setting": "0.2% phenol + […] m-cresol, pH 7.4, NaCl 80 mM", "value": 100.6, "unit": "%"},
      {"measurement": "Solubility of Insulin Aspart", "setting": "0.2% phenol + […] m-cresol, pH 7.4, NaCl 110 mM", "value": 100.0, "unit": "%"},
      {"measurement": "Solubility of Insulin Aspart", "setting": "0.2% phenol + […] m-cresol, pH 7.4, NaCl 140 mM", "value": 99.7, "unit": "%"},
      {"measurement": "Solubility of Insulin Aspart", "setting": "0.2% phenol + […] m-cresol, pH 7.6, NaCl 50 mM", "value": 99.2, "unit": "%"},
      {"measurement": "Solubility of Insulin Aspart", "setting": "0.2% phenol + […] m-cresol, pH 7.6, NaCl 80 mM", "value": 100.8, "unit": "%"},
      {"measurement": "Solubility of Insulin Aspart", "setting": "0.2% phenol + […] m-cresol, pH 7.6, NaCl 110 mM", "value": 100.2, "unit": "%"},
      {"measurement": "Solubility of Insulin Aspart", "setting": "0.2% phenol + […] m-cresol, pH 7.6, NaCl 140 mM", "value": 99.8, "unit": "%"},
      {"measurement": "Solubility of Insulin Aspart", "setting": "[…] phenol + […] m-cresol, pH 6.6, NaCl 50 mM", "value": 97.9, "unit": "%"},
      {"measurement": "Solubility of Insulin Aspart", "setting": "[…] phenol + […] m-cresol, pH 6.6, NaCl 80 mM", "value": 86.3, "unit": "%"},
      {"measurement": "Solubility of Insulin Aspart", "setting": "[…] phenol + […] m-cresol, pH 6.6, NaCl 110 mM", "value": 54.4, "unit": "%"},
      {"measurement": "Solubility of Insulin Aspart", "setting": "[…] phenol + […] m-cresol, pH 6.6, NaCl 140 mM", "value": 38.3, "unit": "%"},
      {"measurement": "Solubility of Insulin Aspart", "setting": "[…] phenol + […] m-cresol, pH 6.8, NaCl 50 mM", "value": 99.8, "unit": "%"},
      {"measurement": "Solubility of Insulin Aspart", "setting": "[…] phenol + […] m-cresol, pH 6.8, NaCl 80 mM", "value": 97.9, "unit": "%"},
      {"measurement": "Solubility of Insulin Aspart", "setting": "[…] phenol + […] m-cresol, pH 6.8, NaCl 110 mM", "value": 97.5, "unit": "%"},
      {"measurement": "Solubility of Insulin Aspart", "setting": "[…] phenol + […] m-cresol, pH 6.8, NaCl 140 mM", "value": 60.5, "unit": "%"},
      {"measurement": "Solubility of Insulin Aspart", "setting": "[…] phenol + […] m-cresol, pH 7.0, NaCl 50 mM", "value": 99.7, "unit": "%"},
      {"measurement": "Solubility of Insulin Aspart", "setting": "[…] phenol + […] m-cresol, pH 7.0, NaCl 80 mM", "value": 99.3, "unit": "%"},
      {"measurement": "Solubility of Insulin Aspart", "setting": "[…] phenol + […] m-cresol, pH 7.0, NaCl 110 mM", "value": 99.3, "unit": "%"},
      {"measurement": "Solubility of Insulin Aspart", "setting": "[…] phenol + […] m-cresol, pH 7.0, NaCl 140 mM", "value": 100.2, "unit": "%"},
      {"measurement": "Solubility of Insulin Aspart", "setting": "[…] phenol + […] m-cresol, pH 7.2, NaCl 50 mM", "value": 99.1, "unit": "%"},
      {"measurement": "Solubility of Insulin Aspart", "setting": "[…] phenol + […] m-cresol, pH 7.2, NaCl 80 mM", "value": 99.2, "unit": "%"},
      {"measurement": "Solubility of Insulin Aspart", "setting": "[…] phenol + […] m-cresol, pH 7.2, NaCl 110 mM", "value": 99.2, "unit": "%"},
      {"measurement": "Solubility of Insulin Aspart", "setting": "[…] phenol + […] m-cresol, pH 7.2, NaCl 140 mM", "value": 101.1, "unit": "%"},
      {"measurement": "Solubility of Insulin Aspart", "setting": "[…] phenol + […] m-cresol, pH 7.4, NaCl 50 mM", "value": 100.0, "unit": "%"},
      {"measurement": "Solubility of Insulin Aspart", "setting": "[…] phenol + […] m-cresol, pH 7.4, NaCl 80 mM", "value": 99.6, "unit": "%"},
      {"measurement": "Solubility of Insulin Aspart", "setting": "[…] phenol + […] m-cresol, pH 7.4, NaCl 110 mM", "value": 99.5, "unit": "%"},
      {"measurement": "Solubility of Insulin Aspart", "setting": "[…] phenol + […] m-cresol, pH 7.4, NaCl 140 mM", "value": 101.1, "unit": "%"},
      {"measurement": "Solubility of Insulin Aspart", "setting": "[…] phenol + […] m-cresol, pH 7.6, NaCl 50 mM", "value": 100.1, "unit": "%"},
      {"measurement": "Solubility of Insulin Aspart", "setting": "[…] phenol + […] m-cresol, pH 7.6, NaCl 80 mM", "value": 99.7, "unit": "%"},
      {"measurement": "Solubility of Insulin Aspart", "setting": "[…] phenol + […] m-cresol, pH 7.6, NaCl 110 mM", "value": 99.4, "unit": "%"},
      {"measurement": "Solubility of Insulin Aspart", "setting": "[…] phenol + […] m-cresol, pH 7.6, NaCl 140 mM", "value": 101.1, "unit": "%"}
    ]}
  ]
}
